Source: publication PMC11087797 (2024)

Key:
Assay in all cases: SPR; peptide …
LA80(3-11)-HLA-E*01:03 = target: LA80(3-11)-HLA-E*01:03
LA1(3-11)-HLA-E*01:03 = target: LA1(3-11)-HLA-E*01:03
LA34(3-11)-HLA-E*01:03 = target: LA34(3-11)-HLA-E*01:03
LB7(3-11)-HLA-E*01:03 = target: LB7(3-11)-HLA-E*01:03
LCw3(3-11)-HLA-E*01:03 = target: LCw3(3-11)-HLA-E*01:03

Binder	Kd (LA80(3-11)-HLA-E*01:03) [µM]	Kd (LA1(3-11)-HLA-E*01:03) [µM]	Kd (LA34(3-11)-HLA-E*01:03) [µM]	Kd (LB7(3-11)-HLA-E*01:03) [µM]	Kd (LCw3(3-11)-HLA-E*01:03) [µM]
soluble CD94-NKG2C NK cell receptor ectodomains (receptor) chain 1: KNSFTKLSIEPAFTPGPNIELQKDSDCCSCQEKWVGYRCNCYFISSEQKTWNESRHLCASQKSSLLQLQNTDELDFMSSSQQFYWIGLSYSEEHTAWLWENGSALSQYLFPSFETFNTKNCIAYNPNGNALDESCEDKNRYICKQQLI chain 2: not shown	42.8	11.3	13.5	25.5	22
soluble CD94-NKG2A NK cell receptor ectodomains (receptor) chain 1: KNSFTKLSIEPAFTPGPNIELQKDSDCCSCQEKWVGYRCNCYFISSEQKTWNESRHLCASQKSSLLQLQNTDELDFMSSSQQFYWIGLSYSEEHTAWLWENGSALSQYLFPSFETFNTKNCIAYNPNGNALDESCEDKNRYICKQQLI chain 2: not shown	2.1	1.5	1.8	3.3	1.5
